Results on 4 molecules are retold here after patent US20070003923A1 (Scripps Research, published 2007).

T1: Ad5Δs truncated Ad5 fiber (deletion of the 14 central shaft repeats), on pseudotyped Ad5 particles (adenovirus serotype 5 (Ad5), UniProt P11818 1-581)
T1 construct: also called Ad5As; pLP32
T1 sequence: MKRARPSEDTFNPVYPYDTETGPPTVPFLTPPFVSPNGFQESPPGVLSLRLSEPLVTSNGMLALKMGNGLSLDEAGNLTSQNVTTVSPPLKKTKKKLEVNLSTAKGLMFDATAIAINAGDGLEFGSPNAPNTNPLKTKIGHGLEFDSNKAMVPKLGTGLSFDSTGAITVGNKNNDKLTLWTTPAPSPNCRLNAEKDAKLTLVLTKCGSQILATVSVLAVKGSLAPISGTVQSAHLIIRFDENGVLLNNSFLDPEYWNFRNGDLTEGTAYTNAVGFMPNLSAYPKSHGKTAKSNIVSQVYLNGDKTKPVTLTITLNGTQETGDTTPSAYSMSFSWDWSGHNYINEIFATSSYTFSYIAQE

B1: wild type Ad5 fiber protein, on Ad5-pseudotyped particles (Ad5.GFP.ΔF/5F) (other)
chain: MKRARPSEDTFNPVYPYDTETGPPTVPFLTPPFVSPNGFQESPPGVLSLRLSEPLVTSNGMLALKMGNGLSLDEAGNLTSQNVTTVSPPLKKTKSNINLEISAPLTVTSEALTVAAAAPLMVAGNTLTMQSQAPLTVHDSKLSIATQGPLTVSEGKLALQTSGPLTTTDSSTLTITASPPLTTATGSLGIDLKEPIYTQNGKLGLKYGAPLHVTDDLNTLTVATGPGVTINNTSLQTKVTGALGFDSQGNMQLNVAGGLRIDSQNRRLILDVSYPFDAQNQLNLRLGQGPLFINSAHNLDINYNKGLYLFTASNNSKKLEVNLSTAKGLMFDATAIAINAGDGLEFGSPNAPNTNPLKTKIGHGLEFDSNKAMVPKLGTGLSFDSTGAITVGNKNNDKLTLWTTPAPSPNCRLNAEKDAKLTLVLTKCGSQILATVSVLAVKGSLAPISGTVQSAHLIIRFDENGVLLNNSFLDPEYWNFRNGDLTEGTAYTNAVGFMPNLSAYPKSHGKTAKSNIVSQVYLNGDKTKPVTLTITLNGTQETGDTTPSAYSMSFSWDWSGHNYINEIFATSSYTFSYIAQE
B2: Ad37s/Ad5k chimeric fiber (Ad37 shaft fused to the Ad5 knob), on pseudotyped Ad5 particles (other)
chain: MKRARPSEDDFNPVYPYGYARNQNIPFLTPPFVSSDGFKNFPPGVLSLKLADPITITNGDVSLKVGGGLTLQDGSLTVNPKAPLQVNTDKKLELAYDNPFESSANKLSLKVGHGLKVLDEKSAAGLKDLIGKLVVLTGKGIGTENLENTDGSSRGIGINVRAREGLTFDNDGYLVAWNPKYDTRTLWTTPAPSPNCRLNAEKDAKLTLVLTKCGSQILATVSVLAVKGSLAPISGTVQSAHLIIRFDENGVLLNNSFLDPEYWNFRNGDLTEGTAYTNAVGFMPNLSAYPKSHGKTAKSNIVSQVYLNGDKTKPVTLTITLNGTQETGDTTPSAYSMSFSWDWSGHNYINEIFATSSYTFSYIAQE
notes: Built from Ad37 1-184, with the first seven residues changed to those of Ad5, and Ad5 400-581; also called pLP13
B3: Coxsackie-Adenovirus Receptor (CAR) on A549 lung carcinoma cells (receptor)
chain: LSITTPEEMIEKAKGETAYLPCKFTLSPEDQGPLDIEWLISPADNQKVDQVIILYSGDKIYDDYYPDLKGRVHFTSNDLKSGDASINVTNLQLSDIGTYQCKVKKAPGVANKKIHLVVLVKPSGARCYVDGSEEIGSDFKIKCEPKEGSLPLQYEWQKLSDSQKMPTSWLAEMTSSVISVKNASSEYSGTYSCTVRNRVGSDQCLLRLNVVPPSNKAGLIAGAIIGTLLALALIGLIIFCCRKKRREEKYEKEVHHDIREDVPPPKSRTSTARSYIGSNHSSLGSMSPSNMEGYSKTQYNQVPSEDFERTPQSPTLPPAKVAAPNLSRMGAIPVMIPAQSKDGSIV
notes: whole, on cells; The assays were run on A549 cells, which were not transfected with CAR
B4: Ad5s/Ad37s chimeric fiber (Ad5 fiber with the 3rd and 21st repeats replaced with the corresponding repeats of Ad37), on pseudotyped Ad5 particles (other)
chain: MKRARPSEDTFNPVYPYDTETGPPTVPFLTPPFVSPNGFQESPPGVLSLRLSEPLVTSNGMLALKMGNGLSLDEAGSLTVNPKAPLQVNTDSNINLEISAPLTVTSEALTVAAAAPLMVAGNTLTMQSQAPLTVHDSKLSIATQGPLTVSEGKLALQTSGPLTTTDSSTLTITASPPLTTATGSLGIDLKEPIYTQNGKLGLKYGAPLHVTDDLNTLTVATGPGVTINNTSLQTKVTGALGFDSQGNMQLNVAGGLRIDSQNRRLILDVSYPFDAQNQLNLRLGQGPLFINSAHNLDINYNKGLYLFTASNNSKKLEVNLSTAKGLMFDATAIAINAGDGLEFGSPNAPNTNPLKTKIGHGLEFDSNIGINVRAREGLTFDNDGAITVGNKNNDKLTLWTTPAPSPNCRLNAEKDAKLTLVLTKCGSQILATVSVLAVKGSLAPISGTVQSAHLIIRFDENGVLLNNSFLDPEYWNFRNGDLTEGTAYTNAVGFMPNLSAYPKSHGKTAKSNIVSQVYLNGDKTKPVTLTITLNGTQETGDTTPSAYSMSFSWDWSGHNYINEIFATSSYTFSYIAQE
notes: also called 'straightened' Ad5 fiber shaft; pLP43

In experiment [1] the target is B3. In words: cell-based or functional assay.
The target in experiment [2] is B3. The experiment can be described thus: virus attachment to A549 cells at 4 C, bound genomes by TaqMan PCR; non-specific binding set by excess Ad5 knob.
Experiment [3] concerns the target B1. The experiment is described as above.
In experiment [4] the target is T1, Ad5Δs truncated Ad5 fiber (deletion of …). The description is as above.

For B1, the “infection of A549 cells by GFP vector particles (FACS)” value in experiment [1] was ~8 fold.

Consider B2, for which the binding result in experiment [2] was “binds”.

Take B3: the binding result in experiment [3] and in experiment [4] was “binds” in each case.

Regarding B4, the binding result in experiment [2] is on record as “binds”.
